From US20240043489A1, “Cytokine Prodrugs Comprising a Cleavable Linker” (Trutino Biosciences Inc., priority 2020, published 2024)
Where “and” joins values, the source holds several entries; their conditions need not be identical. Equal values may be shown once. Entries after “also recorded” stand apart in the source; their conditions may differ.

Legend:
[1] = In vitro serum stability of fusion protein (sandwich ELISA); assay type: in vitro ADME; conditions: 37C up to 72 h; serum of naive and MC38 tumor bearing C57BL/6 mice
Method: We developed an ELISA assay to detect and quantify fusion proteins comprising IL-2 and IL-2Rα moieties. Wells of a 96-well plate are coated overnight with 100 uL of a rat anti-mouse IL-2 monoclonal antibody (JES6-1A12; ThermoFisher) at […] in PBS. After washing, wells are blocked with TBS/0.05% Tween 20/1% BSA, then fusion proteins and/or unknown biological samples are added for 1 hr at room temperature. After washing, an anti-mouse IL-2Rα biotin-labelled detection antibody (BAF2438, R&D systems) is added and binding is detected using Ultra Strepavidin HRP (ThermoFisher). The ELISA plate was developed by adding the chromogenic tetramethylbenzidine substrate (Ultra TMB, ThermoFisher). The reaction is stopped by addition of 0.5M H2SO4 and the absorbance is read at 450-650 nm.
Construct B was incubated at 37C for up to 72 h with serum collected from 8 weeks old female C57BL/6 naive and MC38 tumor bearing mice respectively (n=2 per serum type, tumor volume >3000 mm3 at time of collection), in order to examine both non-specific cleavage as well as MMP-specific off-target cleavage. Samples were collected at 0 h, 4 h, 8 h, 24 h, 48 h and 72 h and the intact non-MMP cleaved fusion protein was quantified using an in-house developed sandwich ELISA.

[2] = system: tumor infiltrating immune cells; experiment: Immune cell populations by immunohistochemistry in MC38 tumor samples; assay type: in vivo, mice; conditions: MC38 tumors, 10 mg/kg IV Q3D for 21 days
Method: The objective of this study is to evaluate immune targets in tumor samples by IHC. See below for details: • CD4+Foxp3 double immunofluorescence staining • CD8, CD25, CD3, CD4 and CD335 single IHC staining
7 tumor samples were selected from the systemic in vivo efficacy study and formalin-fixed paraffin embedded (FFPE) blocks were prepared following standard embedding process.
FFPE blocks were sectioned with a manual rotary microtome (4 μm thickness/section) and optimized IHC assay protocols for all the antibodies were used. All stained sections were scanned with NanoZoomer-S60 Image system with 40× magnification. High resolution picture for whole section was generated and further analyzed.
Scoring Method: All the images were analyzed with HALO™ Image Analysis platform. The whole slide image was analyzed and necrosis area was excluded. The total cells and IHC positive cells were counted. IHC score is presented as the ratio of the positive cell counts against the total cell numbers within whole section and shown in FIG. 8.

[3] = system: heparin; experiment: IL-2 fusion protein plate binding assay to Heparin-BSA conjugate
Method: 96-well plates were coated with 25 ug/mL of Heparin-BSA conjugate (provided by Dr. Mueller, Boerhinger Ingelheim) or control BSA for 18-22 h at room temperature on shaker (350 rpm). After washing, wells are blocked with PBS-0.05% Tween 20/1% BSA for 90 min, then fusion proteins are titrated in 1% BSA/PBS-0.05% Tween 20 pH 7.5 and/or pH 6 and added for 2 hr at room temperature with shaking. After washing, an anti-mouse IL-2 biotin-labelled detection antibody (JES6-5H4, ThermoFisher) is added and binding is detected using Ultra Strepavidin HIRP (ThermoFisher). The plate was developed by adding the chromogenic tetramethylbenzidine substrate (Ultra TMB, ThermoFisher). The reaction is stopped by addition of 0.5M H2SO4 and the absorbance is read at 450-650 nm.

[4] = system: B16F10 melanoma; experiment: In vivo efficacy of retention linker IL-2 drugs in B16F10 syngeneic model (Example 17); parameters: species or system mice
Method: (§1) In a first efficacy study, C57BL/6 mice were subcutaneously inoculated with B16F10 melanoma cells and when the average tumor volume reached on average 70-90 mm^3, animals were randomized into 5 groups based on tumor volumes (n=6 mice per treatment group). Mice were dosed intravenously every 3 days (Q3D) for a total of 5 doses according to following design:
as §1, with “second” for “first”, “study in the same model,” for “study,”
On Day 20, mice received an additional dose of drug, animals were sacrificed 24 hrs later and tissues and blood (processed to serum) were collected and stored at −80C for further testing. […] This is most likely due to the higher levels of both circulating drugs in serum and resident drug in TME, which can exert prolonged anti-tumor activity even after an extended dosing holiday.

B1: Construct B: SEQ ID NO 101: m IL2-2x(SG4)-MMPcs1-2x(G4S)-IL2Ralpha-mIgG1 Fc (protein)
chain: APTSSSTSSSTAEAQQQQQQQQQQQQHLEQLLMDLQELLSRMENYRNLKLPRMLTFKFYLPKQATELKDLQCLEDELGPLRHVLDLTQSKSFQLEDAENFISNIRVTVVKLKGSDNTFECQFDDESATVVDFLRRWIAFCQSIISTSPQSGGGGSGGGGGPLGVRGGGGGSGGGGSELCLYDPPEVPNATFKALSYKNGTILNCECKRGFRRLKELVYMRCLGNSWSSNCQCTSNSHDKSRKQVTAQLEHQKEQQTTTDMQKPTQSMHQENLTGHCREPPPWKHEDSKRIYHFVEGQSVHYECIPGYKALQRGPAISICKMKCGKTGWTQPQLTCVDEREHHRFLASEESQGSRNSSPESETSCPITTTDFPQPTETTAMTETFVLTMEYKGCKPCICTVPEVSSVFIFPPKPKDVLTITLTPKVTCVVVDISKDDPEVQFSWFVDDVEVHTAQTQPREEQFNSTFRSVSELPIMHQDWLNGKEFKCRVNSAAFPAPIEKTISKTKGRPKAPQVYTIPPPKEQMAKDKVSLTCMITDFFPEDITVEWQWNGQPAENYKNTQPIMDTDGSYFVYSKLNVQKSNWEAGNTFTCSVLHEGLHNHHTEKSLSHSPGK
stability of intact fusion protein in serum [1]: stable | tumor infiltrating immune cells (IHC score) vs vehicle [2]: Significantly more immune cells of all tested types; also recorded: significant increase in tumor infiltrating immune cells | heparin binding EC50 relative to Construct CC ([3]; fold higher EC50 value): > 100 fold | heparin binding (qualitative) ([3]; pH 6 vs pH 7.5, plate assay): much weaker | TGI (%) D 15 ([4]; 10 mg/kg IV Q3D, 5 doses): 27% and 27.43% | efficacy after a dosing holiday of 7 days ([4]; 10 mg/kg, Day 20): diminished efficacy | TGI (%) D 20 ([4]; 10 mg/kg, 7 days following the fifth dose): 14.02% | TGI (%) D 13 ([4]; 20 mg/kg IV Q3D, 5 doses): 61% and 61.43% | TGI (%) D 13 ([4]; 40 mg/kg IV Q3D, 5 doses): 58.44% | TGI ([4]; Construct B treated groups regardless of dose (20 and 40 mg/kg)): ~60%
